Assay [1] deals with C-FLAG ILT7 (human ILT7 with FLAG tag at the C terminus, co-expressed with Myc-FcRγ) (human) (UniProt P59901). Description: flow cytometry on ILT7-CHO cells, control antibody, APC goat anti-mouse IgG then FITC donkey anti-goat IgG.
Assay [2] has the same target. As to the kind of experiment: flow cytometry on ILT7-CHO cells, control antibody, APC-labeled goat anti-mouse IgG. In general terms: A flow cytometer gives signals particle by particle.

Chain of C-FLAG ILT7 (human ILT7 with FLAG tag at the C terminus, co-expressed with Myc-FcRγ) (human) (P59901 other isoform, or with tags, fused parts or gaps): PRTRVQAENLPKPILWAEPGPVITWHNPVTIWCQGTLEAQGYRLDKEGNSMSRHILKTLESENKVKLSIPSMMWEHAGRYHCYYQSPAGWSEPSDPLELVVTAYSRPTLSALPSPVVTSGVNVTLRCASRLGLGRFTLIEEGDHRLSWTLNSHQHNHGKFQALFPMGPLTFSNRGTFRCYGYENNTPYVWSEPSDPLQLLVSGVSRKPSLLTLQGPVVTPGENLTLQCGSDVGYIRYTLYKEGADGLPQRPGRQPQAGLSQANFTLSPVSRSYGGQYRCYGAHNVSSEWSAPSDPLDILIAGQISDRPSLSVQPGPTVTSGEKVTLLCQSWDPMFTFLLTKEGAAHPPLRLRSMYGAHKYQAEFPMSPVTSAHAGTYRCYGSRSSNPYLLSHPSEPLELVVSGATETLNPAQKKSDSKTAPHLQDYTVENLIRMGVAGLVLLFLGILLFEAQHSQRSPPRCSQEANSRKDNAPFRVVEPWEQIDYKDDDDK

In assay [1], Mouse IgG2a (antibody) yielded an FITC mean fluorescence intensity, incubation at 4 °C of 3.7 and an FITC mean fluorescence intensity, incubation at 37 °C of 4.2. In assay [2], this substance returned an APC mean fluorescence intensity, incubation at 4 °C of 3 and an APC mean fluorescence intensity, incubation at 37 °C of 3.64.

(Values after US20090280128A1.)
